# T1: LKB1^Y49D (human, UniProt Q15831 1-433, Y49D)
# T1 sequence (looked up): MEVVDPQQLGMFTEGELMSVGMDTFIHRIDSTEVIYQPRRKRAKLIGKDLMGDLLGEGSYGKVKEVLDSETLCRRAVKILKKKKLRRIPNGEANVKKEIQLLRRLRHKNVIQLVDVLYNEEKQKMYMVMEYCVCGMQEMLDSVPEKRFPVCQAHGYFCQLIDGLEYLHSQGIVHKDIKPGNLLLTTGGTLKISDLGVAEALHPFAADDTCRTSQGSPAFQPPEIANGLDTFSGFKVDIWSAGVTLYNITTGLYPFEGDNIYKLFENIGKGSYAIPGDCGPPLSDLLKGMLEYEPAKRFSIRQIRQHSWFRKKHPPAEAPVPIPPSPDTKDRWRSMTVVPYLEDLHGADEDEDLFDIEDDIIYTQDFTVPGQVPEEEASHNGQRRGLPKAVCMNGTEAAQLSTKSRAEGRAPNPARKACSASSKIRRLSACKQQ
# B1: STRADα (natural protein, human (endogenous in A549 and G361), UniProt Q7RTN6 1-431, looked up)
# chain: MSFLVSKPERIRRWVSEKFIVEGLRDLELFGEQPPGDTRRKTNDASSESIASFSKQEVMSSFLPEGGCYELLTVIGKGFEDLMTVNLARYKPTGEYVTVRRINLEACSNEMVTFLQGELHVSKLFNHPNIVPYRATFIADNELWVVTSFMAYGSAKDLICTHFMDGMNELAIAYILQGVLKALDYIHHMGYVHRSVKASHILISVDGKVYLSGLRSNLSMISHGQRQRVVHDFPKYSVKVLPWLSPEVLQQNLQGYDAKSDIYSVGITACELANGHVPFKDMPATQMLLEKLNGTVPCLLDTSTIPAEELTMSPSRSVANSGLSDSLTTSTPRPSNGDSPSHPYHRTFSPHFHHFVEQCLQRNPDARPSASTLLNHSFFKQIKRRASEALPELLRPVTPITNFEGSQSQDHSGIFGLVTNLEELEVDDWEF
# Target: T1, LKB1^Y49D
# Assay: cell-based or functional assay
binder,measurement,value
B1,"specific in vitro kinase activity towards NUAKtide peptide in the presence of STRADα, relative to LKB1^WT",~30 % of LKB1^WT activity
